Experimental data as given in the nanobody polyreactivity screen of Harvey et al. (2022).

test: yeast display, Sf9 membrane polyspecificity reagent, FACS + sequencing; frameworks hold sequencing errors
Summary of the method: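 A nanobody's polyreactivity label depends on the gate it was sorted from. Yeast display cells were stained with 10% biotinylated, detergent-solubilized Sf9 membrane reagent for 1 hour at 4 °C, enriched on streptavidin microbeads and sorted by FACS. The low and high (top ~1%) gates were set on anti-HA fluorescence for expression and streptavidin fluorescence for reagent binding.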

| Sequence | polyreactivity (PSR sort gate) |
| --- | --- |
| QVQLVESGGGLVQAGGSLRLSCAASGSIFHSNAMGWYRQAPGKERELVAAISASGGSTYYADSVKGRFTISRDNAKNTVYLQMNSLKPEDTAVYYCNAVSRYYRFSPYYYWGQGTQVTVSS | high polyreactivity |
| QVQLVESGGGLVQAGGSLRLSCAASGSIFHVNAMGWYRQAPGKERELVADISKRGASTYYADSVKGRFTISRDNAKNTVYLQMNSLKPEDTAVYYCAARVVTPRRQWYTYDYWGQGTQVTVSS | high polyreactivity |
| QVQLVESGGGLVQAGGSLRLSCAASGSIFHWYAMGWYRQAPGKERELVAAINWSGGSTYYADSVKGRFTISRDNAKNTVYLQMNSLKPEDTAVYYCNKAYVSRYDYWGQGTQVTVSS | high polyreactivity |
| QVQLVESGGGLVQAGGSLRLSCAASGSIFHYNSMGWDRQAPGKEWGLVASMSSGGRTYYADSVKGRFTISRDNPKNTVYLQMNSLKPDDTAVYYCAAEYYQTTYVWWTYDYYGGQGTQVTVSS | low polyreactivity |
| QVQLVESGGGLVQAGGSLRLSCAASGSIFHYYAMGWYRQAPGKERELVAAINSTGGSRTYYADSVKGRFTISRDNAKNTVYLRMNCLKPEDTAVYYCAADYRVVWRAYDYWGQGTQVTVSS | low polyreactivity |
| QVQLVESGGGLVQAGGSLRLSCAASGSIFHYYAMGWYRQAPGKERELVAAISSVGSTYYADSVKGRFTISRDNAKNTVYLQINSLKPEDTAVYYCAAEAYAKRYVDRYSWYYYWGQGTQVTVSS | high polyreactivity |
| QVQLVESGGGLVQAGGSLRLSCAASGSIFHYYTMGWYRQAPGKERELVAGISRSGGSTYYADSVKGRFTISRDNAKNTVYLQMNSLKPEDTAVYYCAAARYPYLYAYGYWGQGTQVTVSS | high polyreactivity |
| QVQLVESGGGLVQAGGSLRLSCAASGSIFIFNTMGWYRQAPGKETELVASISSSGSTYYADSVKGRFTISRANAKNTVYLQMNSLKPEDTAVYYCAADAEDRPSWPGNSEYEYWGQGTQVTVSS | low polyreactivity |
| QVQLVESGGGLVQAGGSLRLSCAASGSIFIGYAMGWYRQAPGKERELVAAISQSGGRTYYADSVKGRFTISRDNAKNTVYLQMNSLKPEDTAVYYCNKVTKSYFIYDYWGQGTQVTVSS | high polyreactivity |
| QVQLVESGGGLVQAGGSLRLSCAASGSIFIGYAMGWYRQAPGKERELVAAITSAGSTYADSVKGRFTISRDNAKNTGYLQRNSVKPEDTAVYYCAARFFLVTLDYWGQGTQVTVSS | low polyreactivity |
| QVQLVESGGGLVQAGGSLRLSCAASGSIFIINAMGWYIQAPGKERELVAAINNGVNTYYADSVKGRFTISRDNAKNTVYLQMNSLKPEDTAVYYCAADYGDPRVNEYDYWGQGTQVTVSS | low polyreactivity |
| QVQLVESGGGLVQAGGSLRLSCAASGSIFIINAMGWYRQAPGKERELVAAITTSGGRTYYADSVKGRFTISRDNAKNTVYLQMNSLKPEDTAVYSCASSHYGSTGNYWGQGTQVTVSS | low polyreactivity |
| QVQLVESGGGLVQAGGSLRLSCAASGSIFIINTMGWYRQAPGKERELVAAISWGGTDTNYADSVKGRFTISRDNAKNTVYLQMNSLKPEDTAVYYCNTDQDLVRSYDYWGHGTQVTVSS | low polyreactivity |
| QVQLVESGGGLVQAGGSLRLSCAASGSIFIQYAMGWYRQAPGKERELVAAINSSGGRTYYADSVKGRFTISRDNAKNTVYLQMNSLKPEDTAVYYCAADHGSSFDWGQGTQVTVSS | low polyreactivity |
| QVQLVESGGGLVQAGGSLRLSCAASGSIFIRNAKGWYRQAPGKERELVAAISTIGGRTYYADSVKGRFTISRDNAKNTVYLQMNSLKPEDTAVYYCAAEQGTPSTNWYDYWGQGTQVTVSS | low polyreactivity |
| QVQLVESGGGLVQAGGSLRLSCAASGSIFIRNAMGWYRQAPGKERELVAAISTIGGRTYYADSVKGRFTISRDNAKNTVYLQMNSLNPEDTAVYYCAAEQGTPSTNWYDYWGQGTQVTVSS | low polyreactivity |
| QVQLVESGGGLVQAGGSLRLSCAASGSIFISYAKGWYRQAPGKERELVAAINYSGGSTYYADSVKGRFTISRDNAKNTVYLQMNSLKPEDTAVYYCAKRSTYRYYGYKLRDYWGQVTQVTVSS | low polyreactivity |
| QVQLVESGGGLVQAGGSLRLSCAASGSIFISYAMGWYRQAPGKERELVAAISSGGSTNYADSVKGRFTISRDNAKNTVYLQMNSLKPEDTAVYYCAADGWLLSFTGDGWWFDYWGQGTQVTVSS | low polyreactivity |
| QVQLVESGGGLVQAGGSLRLSCAASGSIFITYAMGWYRQAPGKERELVAAIRDSGDRTYYADSVKGRFTISRDNAKNTVYLQMNSLKPEDTAVYFCNARWQEPLKYDYWGQGTQVTVSS | low polyreactivity |
| QVQLVESGGGLVQAGGSLRLSCAASGSIFITYAMGWYRQAPGKERELVAAITWRGGSTYYADSVKGRFTISRDNAKNTVYLQMNSLKPEDTAVYYCAAEDFYYRSQYRYWYDYWGQGTQVTVSS | high polyreactivity |
| QVQLVESGGGLVQAGGSLRLSCAASGSIFITYVMGWSRQAPGKERELVAGISRSGGSTYYADSVKGRFTISRYNAKNTVYLQMNSLKPEDTAVYYCAAFFLRRPGSSGLRLLGQGTQVTVSS | high polyreactivity |

| Sequence | polyreactivity (PSR sort gate) |
| --- | --- |
| QVQLVESGGGLVQAGGSLRLSCAASGSIFIVNAMGWNRQAPGKERELVAAISWSGGSTYYADSVKGRFTISRDNAKNTVYLQMNSLKPEDTAVYYCAAKYTLPFRDVKYYSWGQGTQVTVSS | high polyreactivity |
| QVQLVESGGGLVQAGGSLRLSCAASGSIFIYNAMGWYRPAPGKETEFVDTINSGTVTKYADSVKGRFTISRDNAKNTVYLQMNSLKPEDTAVYYCATVFDRQYSTQYQVSRYDYWVQGTQVTVSS | low polyreactivity |
| QVQLVESGGGLVQAGGSLRLSCAASGSIFIYYAMGWYRQAPGKERELVARITGGGSTYYADSVKGRFTISRDNAKNTVYLQMNSLKPEDTAVYYCAKRGYHFLTKYDYWGQGTQVTVSS | low polyreactivity |
| QVQLVESGGGLVQAGGSLRLSCAASGSIFKANAMGWYRQAPGKERELVATITSSGTRTYYADSVKGRFTISRDNAKNTVYLQMNSLKPEDTAVYYCNARAYPYQRGRYGYWGQGTQVTVSS | high polyreactivity |
| QVQLVESGGGLVQAGGSLRLSCAASGSIFKAYAMGWYRQAPGKERELVAAITWSAGSTYYADSVKGRFTISRDNAKNTVYLQMNSLKPEDTAVYYCAAEVRGSYYLTGYDYWGQGTQVTVSS | high polyreactivity |
| QVQLVESGGGLVQAGGSLRLSCAASGSIFKFYAMGWNRQAPGKERAFVAAITYRGGSTYYADSVKGRFTISRDNAKNTVYLQMNRLKPEDTAVYYCNAVVLRWRGYLVPFNYWGQGTQVTVSS | high polyreactivity |
| QVQLVESGGGLVQAGGSLRLSCAASGSIFKGYAMGWYRQAPGKEREFVAAITSSDSNTNYADSVKGRFTFSRDNAKNTVYLQLHTLKPEDTAVYYCNARIYNRLYVPHYGFNYWGQGTQVTVSS | low polyreactivity |
| QVQLVESGGGLVQAGGSLRLSCAASGSIFKGYAMGWYRQAPGKERELVAAISRTGGSTYYADSVKGRFTISRDYAKNTVYLQMNSLKPEDTAVYYCAAYSASTYDSWGQGTQVTVSS | high polyreactivity |
| QVQLVESGGGLVQAGGSLRLSCAASGSIFKIYAMGWYRQAPGKERELVAAITINGGSTYYADSVKGRFTISRDNAKNTVYLQMNSLKPEDTAVYYCAASADWWYEYWGQGTQVNVSS | low polyreactivity |
| QVQLVESGGGLVQAGGSLRLSCAASGSIFKLNAMGWYRQAPGKERELVAAISRGGRTYYADSVKGRFTISRDNAKNTVYLQMNSLKPEDTAVYYCAADASSQIWYYPRDDYWGQGTNVTVSS | low polyreactivity |
| QVQLVESGGGLVQAGGSLRLSCAASGSIFKNNAMGWYRQAPGKERELVAAIRSSGGSTYYADSVKGRFTISRDNAKHTVYLQMKSLKPEDTAVYYCAARYRSYPTYYQYNYWGQGTQVTVSS | high polyreactivity |
| QVQLVESGGGLVQAGGSLRLSCAASGSIFKQNAMGWYRQAPGKERELVASIRASGDRTYYADSVKGRFTISRDNAKNPVYLQMNSLKPEDSAVYYCAARRVRTRGYNYWGQGTQVTVSS | high polyreactivity |
| QVQLVESGGGLVQAGGSLRLSCAASGSIFKQNAMGWYRQAPGKERELVASIRASGDRTYYADSVKGRFTISRDNAKNTVYLQMNSLKPEDTAVYYCAARRVRTRGYNYWGQGTQVTVSS | high polyreactivity |
| QVQLVESGGGLVQAGGSLRLSCAASGSIFKQNTKGWYRQAPGKERELVAAISSGGSTYYADSVKGRFTISRDNAKNTVYLQMNSLKPEDTAVYYCAKYYDWDYYLPLEGDYWGQGTQVTVSS | low polyreactivity |
| QVQLVESGGGLVQAGGSLRLSCAASGSIFKQNTMGWYRQAPGKEREFVAAISSGGSTYYADSVKGRFTISRDNAKNTVYLQMNSLKPEDTAVYYCAKYYDWDYYLPLEGDYWGQGTQVTVSS | low polyreactivity |
| QVQLVESGGGLVQAGGSLRLSCAASGSIFKQNTMGWYRQAPGKETELVAAISSGGSTYYADSVKGRFTISRDNAKNTVYLQMNSLKPEDTAVYYCAKYYDWDYYLPLEGDYWGQGTQVTVSS | low polyreactivity |
| QVQLVESGGGLVQAGGSLRLSCAASGSIFKRNAKGWYRQAPGKERGLVAGNSQSGSSTRYADSVKGRFTISRDNAKNTVYLQMNSLKPEDTAVYYCAAELSLAYTYDYWGQGTQVTVSS | high polyreactivity |
| QVQLVESGGGLVQAGGSLRLSCAASGSIFKRNAMGWYRQAPVKETELVAAITRSGSSTYYADSVKGRFKISRDNAKNTVYLQFNSLKPEDTSVYYCAAQYESNGYTGYYWGQGTQVSVSS | high polyreactivity |
| QVQLVESGGGLVQAGGSLRLSCAASGSIFKRNDMGWYRQAPGKDRELVASISSGGSTHYADSVKGRFTISRDNAKNTVSLQMNSLKPEDTAVYYCAATSIRWSVGSFRRDYWGQGTQVTVSS | low polyreactivity |
| QVQLVESGGGLVQAGGSLRLSCAASGSIFKRNPMGRYRQAPGKERELVAGISRRAGSTYYADYVKGRFTISRDNAKNTDYLQMNSLKPEDTAVYYCATYSFRGTYRYDYWGQGTQVTVSS | high polyreactivity |
